Four molecules from patent US20200317768A1 (published 2020) can be followed below.

For experiment [1], the target named is T1, human FcγRIIaR extracellular domain with C-terminal His-tag (human, UniProt P12318 34-217).
T1 construct: also called human FcgRIIaR; FcγRIIa (type R)
T1 chain: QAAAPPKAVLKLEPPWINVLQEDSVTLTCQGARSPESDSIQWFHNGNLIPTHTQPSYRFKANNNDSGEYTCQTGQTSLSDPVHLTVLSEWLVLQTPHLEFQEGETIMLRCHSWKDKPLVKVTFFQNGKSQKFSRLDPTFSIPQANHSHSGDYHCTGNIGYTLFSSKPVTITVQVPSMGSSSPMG
Briefly: SPR (BIACORE); KD of SG1 / KD of variant.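 Further: relative to parent M103205H795-SG1 carrying the SG1 human heavy chain constant region.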

The target of experiment [2] is T2, cynomolgus monkey FcγRIIa1 extracellular domain with C-terminal His-tag (cynomolgus monkey).
T2 construct: also called cyno FcgRIIa1; cynoFcγRIIa1
T2 chain: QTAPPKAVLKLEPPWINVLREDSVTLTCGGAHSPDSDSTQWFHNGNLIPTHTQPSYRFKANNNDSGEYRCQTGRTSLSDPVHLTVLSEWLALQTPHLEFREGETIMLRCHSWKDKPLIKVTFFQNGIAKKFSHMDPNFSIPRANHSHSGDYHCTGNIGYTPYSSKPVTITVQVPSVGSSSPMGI
Kind of experiment: SPR (BIACORE), antibody captured, FcgR analyte.

Experiment [3] has as its target T3, cynomolgus monkey FcγRIIa2 extracellular domain with C-terminal His-tag (cynomolgus monkey).
T3 construct: also called cyno FcgRIIa2; cynoFcγRIIa2
T3 chain: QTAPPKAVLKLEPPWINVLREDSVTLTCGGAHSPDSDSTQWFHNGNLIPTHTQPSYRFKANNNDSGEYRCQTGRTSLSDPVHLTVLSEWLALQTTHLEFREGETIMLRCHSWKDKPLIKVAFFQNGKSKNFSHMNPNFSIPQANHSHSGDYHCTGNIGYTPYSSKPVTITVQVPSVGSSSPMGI
Kind of experiment: SPR (BIACORE), antibody captured, FcgR analyte.

Experiment [4] has as its target T4, cynomolgus monkey FcγRIIa3 extracellular domain with C-terminal His-tag (cynomolgus monkey).
T4 construct: also called cyno FcgRIIa3; cynoFcγRIIa3
T4 chain: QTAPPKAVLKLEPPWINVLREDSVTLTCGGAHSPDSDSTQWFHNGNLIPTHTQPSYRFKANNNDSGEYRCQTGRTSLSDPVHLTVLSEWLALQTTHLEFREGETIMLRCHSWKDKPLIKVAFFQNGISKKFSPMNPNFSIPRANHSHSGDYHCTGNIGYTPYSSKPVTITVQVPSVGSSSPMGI
Kind of experiment: SPR (BIACORE), antibody captured, FcgR analyte.

For experiment [5], the target named is T5, cynomolgus monkey FcγRIIIaS extracellular domain with C-terminal His-tag (cynomolgus monkey, UniProt Q8SPW2 21-206 at identity 1.00)).
T5 construct: also called cyno FcgRIIIaS; cynoFcγRIIIaS
T5 chain: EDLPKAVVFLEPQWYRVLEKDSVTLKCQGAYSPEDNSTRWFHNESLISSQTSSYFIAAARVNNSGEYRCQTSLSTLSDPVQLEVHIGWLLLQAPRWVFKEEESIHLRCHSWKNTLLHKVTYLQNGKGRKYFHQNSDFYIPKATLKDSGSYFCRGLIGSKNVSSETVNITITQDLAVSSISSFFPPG
Briefly: SPR (BIACORE), antibody captured, FcgR analyte.

Experiment [6] has as its target T6, human FcγRIIaH extracellular domain with C-terminal His-tag (human, UniProt P12318 34-217).
T6 construct: also called human FcgRIIaH; FcγRIIa (type H)
T6 sequence: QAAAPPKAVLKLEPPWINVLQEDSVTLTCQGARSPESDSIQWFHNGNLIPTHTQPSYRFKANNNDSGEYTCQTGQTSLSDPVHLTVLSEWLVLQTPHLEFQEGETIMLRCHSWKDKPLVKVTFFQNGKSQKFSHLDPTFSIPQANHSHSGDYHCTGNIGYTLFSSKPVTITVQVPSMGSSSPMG
Briefly: SPR (BIACORE), antibody captured, FcgR analyte.

Experiment [7] deals with T1, human FcγRIIaR extracellular domain …. Briefly: SPR (BIACORE), antibody captured, FcgR analyte.
The target in experiment [8] is T7, human FcγRIIb extracellular domain with C-terminal His-tag (human, UniProt P31994 43-217).
T7 construct: also called human FcgRIIb
T7 sequence: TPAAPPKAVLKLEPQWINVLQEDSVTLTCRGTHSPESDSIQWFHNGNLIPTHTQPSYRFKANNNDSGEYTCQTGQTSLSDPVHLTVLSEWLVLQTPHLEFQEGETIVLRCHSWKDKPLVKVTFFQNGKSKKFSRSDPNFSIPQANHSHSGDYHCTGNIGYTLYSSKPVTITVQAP
Briefly: SPR (BIACORE), antibody captured, FcgR analyte.

Experiment [9] addresses T8, human FcγRIIIaV extracellular domain with C-terminal His-tag (human, UniProt P08637 17-208).
T8 construct: also called human FcgRIIIaV
Kind of experiment: SPR (BIACORE), antibody captured, FcgR analyte.

T8 sequence (P08637 17-208 F176V): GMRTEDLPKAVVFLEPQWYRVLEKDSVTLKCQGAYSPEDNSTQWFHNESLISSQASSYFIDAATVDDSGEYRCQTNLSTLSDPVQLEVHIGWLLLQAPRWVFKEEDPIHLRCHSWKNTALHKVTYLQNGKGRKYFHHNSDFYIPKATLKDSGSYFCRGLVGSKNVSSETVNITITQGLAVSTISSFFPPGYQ

B1: M103205H795-MY526/M103202L889-SK1 (antibody, human IgG1, kappa)
heavy: QVTLKESGPVLVKPTETLTLTCTVSGIDLSHDDISWVRQAPGKGLEWVGIISYAGSTYYASWAKGRLTISKDTSKNQVVLTMTNMDPVDTATYYCARGVPAYSHGGDLWGQGTLVTVSSASTKGPSVFPLAPSSKSTSGGTAALGCLVKDYFPEPVTVSWNSGALTSGVHTFPAVLQSSGLYSLSSVVTVPSSSLGTQTYICNVNHKPSNTKVDKKVEPKSCDKTHTCPPCPTPELLTGPVVFLFPPKPKDTLMISRTPEVTCVVVDVSDEDPEVKFNWYVDGVEVHNAKTKPREELYNSTYRVVSVLTVLHQDWLNGKEYKCKVSNKALPKPIEKTISKAKGQPREPQVYTLPPSREEMTKNQVSLTCLVKGFYPSDIAVEWESNGQPENNYKTTPPVLDSDGSFFLYSKLTVDKSRWQQGNVFSCSVMHEALHNHYTQKSLSLSP
light: DIVMTQSPATLSLSPGERATLSCTSSQSVYHANWLSWFQQKPGQPPKLLIYWASTLAYGVPSRFSGSGSGTDFTLTISSLQPEDAATYYCAGGYGGGRYAFGQGTKVEIKRTVAAPSVFIFPPSDEQLKSGTASVVCLLNNFYPREAKVQWKVDNALQSGNSQESVTEQDSKDSTYSLSSTLTLSKADYEKHKVYACEVTHQGLSSPVTKSFNRGEC
notes: Substitutions introduced into M103205H795-SG1, expressed with M103202L889-SK1 as light chain; EU numbering
As to B1, the “KD fold (SG1 = 1)” value in experiment [1] was found to be 5.2 fold. Also, the equilibrium dissociation constant (Kd) amounted to 13000 nM in experiment [2]; 1200 nM in experiment [3]; 1300 nM in [4]; 16000 nM in [5]; 170 nM in experiment [6]; 210 nM in experiment [7]. Moreover, the equilibrium dissociation constant (Kd) in [8] came to 1200 nM; in experiment [9], 4300 nM.

B2: M103205H795-MY527/M103202L889-SK1 (antibody, human IgG1, kappa)
heavy: QVTLKESGPVLVKPTETLTLTCTVSGIDLSHDDISWVRQAPGKGLEWVGIISYAGSTYYASWAKGRLTISKDTSKNQVVLTMTNMDPVDTATYYCARGVPAYSHGGDLWGQGTLVTVSSASTKGPSVFPLAPSSKSTSGGTAALGCLVKDYFPEPVTVSWNSGALTSGVHTFPAVLQSSGLYSLSSVVTVPSSSLGTQTYICNVNHKPSNTKVDKKVEPKSCDKTHTCPPCPTPELLTGPSVFLFPPKPKDTLMISRTPEVTCVVVDVSDEDPEVKFNWYVDGVEVHNAKTKPREELYNSTYRVVSVLTVLHQDWLNGKEYKCKVSNKALPKPIEKTISKAKGQPREPQVYTLPPSREEMTKNQVSLTCLVKGFYPSDIAVEWESNGQPENNYKTTPPVLDSDGSFFLYSKLTVDKSRWQQGNVFSCSVMHEALHNHYTQKSLSLSP
light: DIVMTQSPATLSLSPGERATLSCTSSQSVYHANWLSWFQQKPGQPPKLLIYWASTLAYGVPSRFSGSGSGTDFTLTISSLQPEDAATYYCAGGYGGGRYAFGQGTKVEIKRTVAAPSVFIFPPSDEQLKSGTASVVCLLNNFYPREAKVQWKVDNALQSGNSQESVTEQDSKDSTYSLSSTLTLSKADYEKHKVYACEVTHQGLSSPVTKSFNRGEC
notes: as for B1
As to B2, in experiment [1], the “KD fold (SG1 = 1)” value was found to be 3.8 fold. The Kd amounted to 1100 nM in experiment [2]; 1300 nM in experiment [3]; 3400 nM in experiment [4]; 1500 nM in experiment [5]; 110 nM in experiment [6]; 290 nM in experiment [7]. Further, the Kd in [8] worked out at 1400 nM; in experiment [9], 4300 nM.

B3: M103205H795-MY528/M103202L889-SK1 (antibody, human IgG1, kappa)
heavy: QVTLKESGPVLVKPTETLTLTCTVSGIDLSHDDISWVRQAPGKGLEWVGIISYAGSTYYASWAKGRLTISKDTSKNQVVLTMTNMDPVDTATYYCARGVPAYSHGGDLWGQGTLVTVSSASTKGPSVFPLAPSSKSTSGGTAALGCLVKDYFPEPVTVSWNSGALTSGVHTFPAVLQSSGLYSLSSVVTVPSSSLGTQTYICNVNHKPSNTKVDKKVEPKSCDKTHTCPPCPAPEWLTGPSVFLFPPKPKDTLMISRTPEVTCVVVDVSDEDPEVKFNWYVDGVEVHNAKTKPREEQYNSTYRVVSVLTVLHQDWLNGKEYKCKVSNKALPKPIEKTISKAKGQPREPQVYTLPPSREEMTKNQVSLTCLVKGFYPSDIAVEWESNGQPENNYKTTPPVLDSDGSFFLYSKLTVDKSRWQQGNVFSCSVMHEALHNHYTQKSLSLSP
light: DIVMTQSPATLSLSPGERATLSCTSSQSVYHANWLSWFQQKPGQPPKLLIYWASTLAYGVPSRFSGSGSGTDFTLTISSLQPEDAATYYCAGGYGGGRYAFGQGTKVEIKRTVAAPSVFIFPPSDEQLKSGTASVVCLLNNFYPREAKVQWKVDNALQSGNSQESVTEQDSKDSTYSLSSTLTLSKADYEKHKVYACEVTHQGLSSPVTKSFNRGEC
notes: as for B1
As for B3, the “KD fold (SG1 = 1)” value in [1] was 2 fold. Also, the equilibrium dissociation constant (Kd) in experiment [2] worked out at 1400 nM; in experiment [3], 1500 nM; in [4], 3200 nM; in experiment [5], 2000 nM; in [6], 390 nM; in experiment [7], 360 nM. Besides, the figures for the Kd in experiment [8] and in [9] were 2200 nM and 4200 nM, respectively.

B4: M103205H795-MY529/M103202L889-SK1 (antibody, human IgG1, kappa)
heavy: QVTLKESGPVLVKPTETLTLTCTVSGIDLSHDDISWVRQAPGKGLEWVGIISYAGSTYYASWAKGRLTISKDTSKNQVVLTMTNMDPVDTATYYCARGVPAYSHGGDLWGQGTLVTVSSASTKGPSVFPLAPSSKSTSGGTAALGCLVKDYFPEPVTVSWNSGALTSGVHTFPAVLQSSGLYSLSSVVTVPSSSLGTQTYICNVNHKPSNTKVDKKVEPKSCDKTHTCPPCPAPEWLTGPSVFLFPPKPKDTLMISRTPEVTCVVVDVSDEDPEVKFNWYVDGVEVHNAKTKPREELYNSTYRVVSVLTVLHQDWLNGKEYKCKVSNKALPKPIEKTISKAKGQPREPQVYTLPPSREEMTKNQVSLTCLVKGFYPSDIAVEWESNGQPENNYKTTPPVLDSDGSFFLYSKLTVDKSRWQQGNVFSCSVMHEALHNHYTQKSLSLSP
light: DIVMTQSPATLSLSPGERATLSCTSSQSVYHANWLSWFQQKPGQPPKLLIYWASTLAYGVPSRFSGSGSGTDFTLTISSLQPEDAATYYCAGGYGGGRYAFGQGTKVEIKRTVAAPSVFIFPPSDEQLKSGTASVVCLLNNFYPREAKVQWKVDNALQSGNSQESVTEQDSKDSTYSLSSTLTLSKADYEKHKVYACEVTHQGLSSPVTKSFNRGEC
notes: as for B1
On to B4, for which the “KD fold (SG1 = 1)” value in experiment [1] is 2.1 fold. The dissociation constant (Kd) in experiment [2] worked out at 1000 nM; in experiment [3], 1400 nM; in experiment [4], 3200 nM; in experiment [5], 2200 nM; in [6] it was 230 nM; in experiment [7], 530 nM. The Kd in experiment [8] was determined as 1400 nM; in experiment [9], 4000 nM.
